Experimental data published in the supplement of paper PMC7125110.
± gives the standard error. For some assays here: Variants at the floor of the assay were thinned out.

B1: glmS ribozyme (parent)
chain: AUAAAAGCGCCAGAACUACAGAAAUGUAGUUGACGAGGAGGAGGUUUAUCGAAUUUUCGGCGGAUGCCUCCAAA

Columns and labels:
Settings in all cases: with glucosamine-6-phosphate
glucosamine-6-phosphate [1] = variants of: B1; experiment: kcat; higher = faster cleavage; RNA array
Procedure, shortened: (§1)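 A hybridised Cy3 probe tracked barcoded ribozyme variants, transcribed in situ by E. coli RNA polymerase on sequenced MiSeq chips, at 37 °C. The variants received 40 μM to 10 mM glucosamine-6-phosphate in HEPES/KCl/Mg(OAc)2 buffer. kobs came from decay fits and kcat and KM from weighted Michaelis–Menten fits.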

glucosamine-6-phosphate [2] = variants of: B1; experiment: self-cleavage kobs at 10000 uM GlcN6P; higher = faster cleavage; RNA array
Procedure, shortened: as §1

glucosamine-6-phosphate [3] = variants of: B1; experiment: KM; higher = weaker cofactor use; RNA array
Procedure, shortened: as §1

glucosamine-6-phosphate [4] = variants of: B1; experiment: self-cleavage kobs at 40 uM GlcN6P; higher = faster cleavage; RNA array
Procedure, shortened: as §1

glucosamine-6-phosphate [5] = variants of: B1; experiment: self-cleavage kobs at 160 uM GlcN6P; higher = faster cleavage; RNA array
Procedure, shortened: as §1

glucosamine-6-phosphate [6] = variants of: B1; experiment: self-cleavage kobs at 640 uM GlcN6P; higher = faster cleavage; RNA array
Procedure, shortened: as §1

glucosamine-6-phosphate [7] = variants of: B1; experiment: self-cleavage kobs at 2500 uM GlcN6P; higher = faster cleavage; RNA array
Procedure, shortened: as §1

Variant	kcat (glucosamine-6-phosphate [1]) [s⁻¹]	self-cleavage kobs at 10000 uM GlcN6P (glucosamine-6-phosphate [2]) [s⁻¹]	KM (glucosamine-6-phosphate [3]) [µM]	self-cleavage kobs at 40 uM GlcN6P (glucosamine-6-phosphate [4]) [s⁻¹]	self-cleavage kobs at 160 uM GlcN6P (glucosamine-6-phosphate [5]) [s⁻¹]	self-cleavage kobs at 640 uM GlcN6P (glucosamine-6-phosphate [6]) [s⁻¹]	self-cleavage kobs at 2500 uM GlcN6P (glucosamine-6-phosphate [7]) [s⁻¹]
A53C U57A U69A	1.88e-05 ± 5.8e-06	–	–	–	–	–	–
A52U G59A C68G	< 1e-05	–	–	–	–	–	–
C50A C58G	< 1e-05	< 1e-05	–	–	–	–	–
U45C C70U	0.0085 ± 0.0033	0.00646 ± 0.00093	4580 ± 2200	0.000103 ± 1.3e-05	0.000303 ± 4.5e-05	0.000855 ± 0.00011	0.00283 ± 0.00041
U47G U65C	0.000283 ± 6.3e-05	0.000232 ± 3.5e-05	–	–	–	7.88e-05 ± 2.3e-05	0.000316 ± 6.8e-05
A48G G59A	5.08e-05 ± 1.8e-05	–	–	–	–	–	6.29e-05 ± 1.8e-05
U47A G66U	0.00545 ± 0.0009	0.00506 ± 0.00076	1780 ± 480	0.00013 ± 2.5e-05	–	0.00141 ± 0.00028	0.00244 ± 0.00069
U45G C58G	6.11e-05 ± 9.3e-06	4.17e-05 ± 1.1e-05	4730 ± 1900	–	–	–	–
A53U C70A	0.000125 ± 2.5e-05	–	–	4.52e-05 ± 7.1e-06	7.24e-05 ± 1.2e-05	0.000117 ± 1.3e-05	–
U45G A64G	0.00935 ± 0.0026	0.00759 ± 0.002	2790 ± 990	0.000169 ± 2.8e-05	0.000411 ± 0.00011	0.00161 ± 0.0003	0.00451 ± 0.00092
U45G A53U	0.00477 ± 0.00059	0.004 ± 0.0007	2170 ± 340	9.6e-05 ± 1.4e-05	0.000306 ± 5.6e-05	0.000953 ± 0.00022	0.00274 ± 0.001
U46G C50A	< 1e-05	–	–	–	< 1e-05	–	–
A48G G63A	< 1e-05	–	–	< 1e-05	< 1e-05	–	–
A52U U57A	0.00351 ± 0.00067	0.00213 ± 0.00033	5900 ± 1500	–	9.27e-05 ± 1.9e-05	0.000344 ± 6.8e-05	0.00123 ± 0.00025
A52U U57G	5.28e-05 ± 9.7e-06	4.88e-05 ± 7.6e-06	–	< 1e-05	–	–	–
A48U C50G G59U G66U	1.53e-05 ± 4.3e-06	–	–	–	< 1e-05	–	–
A53C G66C	0.000476 ± 8.1e-05	0.000368 ± 6.5e-05	2510 ± 780	–	–	9.27e-05 ± 1.9e-05	0.00034 ± 0.00011
A48U C67U	0.00022 ± 1.3e-05	0.00018 ± 2e-05	1890 ± 230	–	–	5.32e-05 ± 7.6e-06	0.000135 ± 1.7e-05

Variant	kcat (glucosamine-6-phosphate [1]) [s⁻¹]	self-cleavage kobs at 10000 uM GlcN6P (glucosamine-6-phosphate [2]) [s⁻¹]	KM (glucosamine-6-phosphate [3]) [µM]	self-cleavage kobs at 40 uM GlcN6P (glucosamine-6-phosphate [4]) [s⁻¹]	self-cleavage kobs at 160 uM GlcN6P (glucosamine-6-phosphate [5]) [s⁻¹]	self-cleavage kobs at 640 uM GlcN6P (glucosamine-6-phosphate [6]) [s⁻¹]	self-cleavage kobs at 2500 uM GlcN6P (glucosamine-6-phosphate [7]) [s⁻¹]
A53U G60A C70A	1.78e-05 ± 4.4e-06	–	–	–	–	–	–
A48U U54G C70U	0.000549 ± 9.5e-05	0.000445 ± 0.00012	1760 ± 550	–	–	0.000139 ± 2.9e-05	0.000369 ± 9.6e-05
A48U U69C	0.000248 ± 8.5e-06	0.000215 ± 2.7e-05	1640 ± 120	–	–	7.15e-05 ± 1e-05	0.000147 ± 1.8e-05
U47G A52U	0.000286 ± 1.4e-05	0.000234 ± 2.6e-05	1950 ± 180	–	–	6.99e-05 ± 7.7e-06	0.000169 ± 2e-05
C50G U56C	1.76e-05 ± 2.6e-06	–	–	–	–	–	–
U49C A53U	< 1e-05	–	–	–	–	–	–
U47G A48C	0.000154 ± 1.4e-05	0.000124 ± 1.9e-05	2250 ± 640	< 1e-05	–	–	9.31e-05 ± 3e-05
U45G C67A	0.00845 ± 0.0014	0.00674 ± 0.0011	2670 ± 590	0.000114 ± 1.8e-05	0.000663 ± 0.00016	0.00177 ± 0.00033	0.00369 ± 0.001
A53C C70G	8.19e-05 ± 3.8e-06	7.97e-05 ± 7.3e-06	438 ± 110	–	–	5.26e-05 ± 9.1e-06	6.51e-05 ± 9.9e-06
C50G G51A G59U C70G	0.000102 ± 2.5e-05	–	–	–	9.16e-05 ± 3.2e-05	0.000132 ± 2.9e-05	7.99e-05 ± 2e-05
C50A C70A	4.02e-05 ± 1.1e-05	–	–	–	3.47e-05 ± 1.5e-05	3.8e-05 ± 1.3e-05	5.27e-05 ± 1e-05
C50A A53G	2.89e-05 ± 3e-06	2.62e-05 ± 9.1e-06	–	–	–	–	3.53e-05 ± 1.5e-05
A48C C67U	0.000136 ± 1.3e-05	9.42e-05 ± 1.2e-05	4380 ± 1100	–	–	–	5.35e-05 ± 1.4e-05
G44C U54G	0.000124 ± 1.2e-05	0.000118 ± 1.9e-05	1200 ± 330	–	–	4.75e-05 ± 1.2e-05	7.38e-05 ± 1.6e-05
C50G U57A	7.3e-05 ± 1.7e-05	–	–	3.58e-05 ± 1.6e-05	8.31e-05 ± 1.4e-05	5.84e-05 ± 1.6e-05	6.05e-05 ± 2.7e-05
U54C U55C	0.014 ± 0.0045	0.0111 ± 0.0019	2720 ± 1100	0.000294 ± 4.1e-05	0.000636 ± 8.9e-05	0.00279 ± 0.00037	0.00663 ± 0.0011
A52C C67G	1.74e-05 ± 6.9e-06	–	–	–	–	–	–
C50G G59U C68G	8.8e-05 ± 8.6e-06	7.83e-05 ± 1.5e-05	–	6.82e-05 ± 2.8e-05	–	0.000101 ± 3e-05	0.000102 ± 2.2e-05
